# “Also recorded” adds a separate entry of the source.
# T1: FAP (Homo sapiens, UniProt Q12884)
# T1 sequence (Q12884 1-760): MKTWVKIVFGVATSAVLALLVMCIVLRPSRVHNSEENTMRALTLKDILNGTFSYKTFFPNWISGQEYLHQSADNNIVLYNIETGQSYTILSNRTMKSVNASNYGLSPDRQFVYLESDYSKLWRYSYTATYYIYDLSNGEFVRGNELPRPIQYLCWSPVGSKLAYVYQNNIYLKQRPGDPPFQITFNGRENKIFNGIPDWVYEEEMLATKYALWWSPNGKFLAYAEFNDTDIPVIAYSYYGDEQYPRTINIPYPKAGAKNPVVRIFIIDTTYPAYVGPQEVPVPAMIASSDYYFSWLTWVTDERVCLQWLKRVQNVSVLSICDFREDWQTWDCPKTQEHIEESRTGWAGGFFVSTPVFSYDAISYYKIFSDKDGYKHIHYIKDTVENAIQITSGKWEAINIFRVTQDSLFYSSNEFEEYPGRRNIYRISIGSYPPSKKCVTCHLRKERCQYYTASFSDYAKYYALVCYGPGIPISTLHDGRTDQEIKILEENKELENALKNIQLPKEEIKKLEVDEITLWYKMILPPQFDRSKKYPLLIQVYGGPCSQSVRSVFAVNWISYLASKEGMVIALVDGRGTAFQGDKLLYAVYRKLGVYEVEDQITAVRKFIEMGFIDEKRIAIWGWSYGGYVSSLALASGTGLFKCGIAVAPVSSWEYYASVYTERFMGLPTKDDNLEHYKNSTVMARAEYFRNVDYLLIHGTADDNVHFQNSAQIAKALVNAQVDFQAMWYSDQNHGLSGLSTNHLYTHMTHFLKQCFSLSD
# T2: dipeptidylpeptidase activity of FAP (Homo sapiens, UniProt Q12884)
# T2 construct: native FAP expressed on human AF; endogenous in cells
# T2 sequence (Q12884 1-760): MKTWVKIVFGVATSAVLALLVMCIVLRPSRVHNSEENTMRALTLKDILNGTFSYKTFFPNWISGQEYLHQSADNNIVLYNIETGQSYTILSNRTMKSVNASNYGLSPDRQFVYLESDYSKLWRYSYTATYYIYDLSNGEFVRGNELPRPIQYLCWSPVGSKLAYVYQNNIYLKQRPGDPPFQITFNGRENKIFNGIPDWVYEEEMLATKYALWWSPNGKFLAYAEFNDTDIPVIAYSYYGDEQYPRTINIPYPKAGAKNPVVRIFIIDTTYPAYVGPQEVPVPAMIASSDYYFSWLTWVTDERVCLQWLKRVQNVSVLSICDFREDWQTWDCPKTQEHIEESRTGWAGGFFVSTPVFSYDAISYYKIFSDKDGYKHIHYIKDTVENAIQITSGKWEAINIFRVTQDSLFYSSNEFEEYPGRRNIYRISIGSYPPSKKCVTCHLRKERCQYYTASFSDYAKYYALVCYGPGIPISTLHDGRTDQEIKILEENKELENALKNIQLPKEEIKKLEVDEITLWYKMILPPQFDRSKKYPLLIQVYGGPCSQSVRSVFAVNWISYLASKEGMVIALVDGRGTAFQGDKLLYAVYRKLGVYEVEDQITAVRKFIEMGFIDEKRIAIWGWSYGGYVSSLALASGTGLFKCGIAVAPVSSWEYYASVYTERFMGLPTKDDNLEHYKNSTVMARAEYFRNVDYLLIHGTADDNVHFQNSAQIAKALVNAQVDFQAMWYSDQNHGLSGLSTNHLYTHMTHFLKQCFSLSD
# B1: ESC11 IgG1: ESC11 variable domains in full human IgG1 format; heavy chain H to Q at position 1 (SEQ ID NO: 2) (antibody, V domains shown)
# VH: QVQLQESGPGLVKPSETLSLTCTVSGGSISSNNYYWGWIRQTPGKGLEWIGSIYYSGSTNYNPSLKSRVTISVDTSKNQFSLKLSSVTAADTAVYYCARGARWQARPATRIDGVAFDIWGQGTMVTVSS
# VL: ETTLTQSPGTLSLSPGERATLSCRASQTVTRNYLAWYQQKPGQAPRLLMYGASNRAAGVPDRFSGSGSGTDFTLTISRLEPEDFAVYYCQQFGSPYTFGQGTKVEIK
# B2: ESC11 Fab fragment: fully human anti-FAP Fab from phage library; VH SEQ ID NO: 1, VL SEQ ID NO: 3 (antibody, listed as Homo sapiens, V domains shown)
# VH: HVQLQESGPGLVKPSETLSLTCTVSGGSISSNNYYWGWIRQTPGKGLEWIGSIYYSGSTNYNPSLKSRVTISVDTSKNQFSLKLSSVTAADTAVYYCARGARWQARPATRIDGVAFDIWGQGTMVTVSS
# VL: ETTLTQSPGTLSLSPGERATLSCRASQTVTRNYLAWYQQKPGQAPRLLMYGASNRAAGVPDRFSGSGSGTDFTLTISRLEPEDFAVYYCQQFGSPYTFGQGTKVEIK
# B3: ESC14: anti-FAP antibody clone ESC14, format (Fab or IgG) given by the context of the place (antibody, V domains shown)
# VH: EVQLVQSGAEVKKPGASVKVSCKASGYTFTSYGISWVRQAPGQGLEWMGWISAYNGNTNYAQKLQGRVTMTTDTSTSTAYMELRSLRSDDTAVYYCARDWSRSGYYLPDYWGQGTLVTVSS
# VL: DVVMTQSPLSLPVTLGQPASISCRSSQSLLHSNGYNYLDWYLQRPGQSPHLLIFLGSNRASGVPDRFSGSGSGTDFTLKISRVEAEDVGIYYCMQALQTPPTFGQGTKVEIK
# B4: ESC14 IgG1: ESC14 variable domains cloned into a full human IgG1 format (antibody, V domains shown)
# VH: EVQLVQSGAEVKKPGASVKVSCKASGYTFTSYGISWVRQAPGQGLEWMGWISAYNGNTNYAQKLQGRVTMTTDTSTSTAYMELRSLRSDDTAVYYCARDWSRSGYYLPDYWGQGTLVTVSS
# VL: DVVMTQSPLSLPVTLGQPASISCRSSQSLLHSNGYNYLDWYLQRPGQSPHLLIFLGSNRASGVPDRFSGSGSGTDFTLKISRVEAEDVGIYYCMQALQTPPTFGQGTKVEIK
# B5: ESC14 Fab fragment: fully human anti-FAP Fab from phage library; VH SEQ ID NO: 7, VL SEQ ID NO: 8 (antibody, listed as Homo sapiens, V domains shown)
# VH: EVQLVQSGAEVKKPGASVKVSCKASGYTFTSYGISWVRQAPGQGLEWMGWISAYNGNTNYAQKLQGRVTMTTDTSTSTAYMELRSLRSDDTAVYYCARDWSRSGYYLPDYWGQGTLVTVSS
# VL: DVVMTQSPLSLPVTLGQPASISCRSSQSLLHSNGYNYLDWYLQRPGQSPHLLIFLGSNRASGVPDRFSGSGSGTDFTLKISRVEAEDVGIYYCMQALQTPPTFGQGTKVEIK
# Legend:
# [1] = target: T1, FAP; conditions: cited from earlier work
# [2] = target: T1, FAP; test: Competition assay on HT1080hFAP cells by flow cytometry; format: binding; parameters: expressed in transfected cells; host or cells: HT1080 (FAP-transfected); conditions: IgG at 5 ug/ml before ESC11/ESC14 Fab fragments; HT1080FAP cells, 4° C.
# Protocol: For measuring the competitive binding of ESC11 and ESC14, Fab fragments were titered on HT1080hFAP cells and binding was determined by flow cytometry. The concentration resulting in 90% of the maximal binding was used for the competition assay. HT1080FAP were incubated with the indicated antibodies at 5 ug/ml for 20 min at 4° C., then the ESC11-/ESC14 Fab fragments or PBS added at the pre-determined concentrations and incubated for 20 min at 4° C. Cells were washed once with PBS at 4° C. and fixed with 2% PFA on ice. Bound Fab fragment was detected by the myc-tag with biotinylated anti-myc and PE conjugated streptavidin. Cells were then analyzed by flow cytometry as described.
# [3] = target: T1, FAP; test: Antibody mediated down-regulation of FAP expression; format: cell-based; parameters: expressed in transfected cells; host or cells: HT1080 (FAP-transfected); conditions: FAP-transfected tumor cell lines (HT1080FAP), over night incubation, F19 staining
# Protocol: For detection of loss of FAP expression, sub-confluent HT1080FAP cultures were trypsinized, washed with PBS and resuspended in RPMI, 10% FBS at 5×10^5 cells and 0.5 ml per well seeded in 12 well cell culture plates and the indicated concentration of ESCHIgG was added. After over night incubation, cells were trypsinized washed and stained with 10 ug/ml F19 followed by FITC-conjugated polyclonal goat anti-mouse. Fluorescence intensity of the cells was analyzed by flow cytometry. % FAP expression was calculated (100/(signal 0 ug/ml ESC11IgG−background signal))*(signal with ESC11IgG−backgroundsignal). One representative of three independent experiments is shown.
# [4] = system: HT1080FAP cells; test: Internalization of FAP-antibody complexes by fluorescence microscopy; format: cell-based; conditions: DyLight 488 labelled antibody, 37° C., two hours, acidic wash
# Protocol: HT1080FAP cells were incubated with fluorescence labelled anti-FAP antibody Esc11 DYLIGHT® […] (flurorochrome conjugated antibody, ThermoScientific). […] When cells were warmed up to 37° C., rapid internalisation of FAP-Esc11 complexes could be detected with cytoplasmatic spots and vesicular accummulation (FIG. 11B).
# Methods: HT1080FAP were grown on fibronectin coated glas slides over night. The cells were then treated with DYLIGHT® (Thermo Scientific) labeled ESC11IgG at either 4° C. or 37° C. for indicated time points. The cover slides were then mounted with flouromount for fluorescence microscopy. ESC11 DYLIGHT® 488 was detected at extention wavelaength of 488 nm and an emission of 518 nm. The results are depicted in FIG. 11.
# [5] = target: T3, CD26 (Homo sapiens, UniProt P27487); test: Binding specificity by ELISA on cell lysates, CD26; conditions: HEK293 huCD26+ lysates
# T3 construct: expressed in transfected cells; host or cells: HEK293 c-18 (ATCC CRL-10852), pEAK 8 vector; cell lysate coated on the plate
# Protocol: FIG. 3: Specificity of Fabs ESC11 and ESC14. A. ELISA of Fabs (100 nM) binding to cell-lysate-coated plates. HT1080 FAP^+ (black bars), HT1080 (white bars), HEK293 huCD26^+ (striped bars), HEK293 muFAP^+ (grey bars), HEK293 mock transfected line (hatched bars). B. FACS analysis of Fab ESC11 (black line), ESC14 (grey line), and a non-binding control Fab (filled) on HT1080 FAP^+ cells (left) and 293 muFAP^+ cells (right)
# Screening of Supernatants by ELISA and Flow Cytometry.
# Supernatants of the output libraries after each selection round, and supernatants of individual bacterial clones after rounds three, four, and five were screened for FAP-binding phage by ELISA. Ninety-six-well microtiter plates (MAXISORP® Nunc) were coated with cell extracts cell extracts from HEK293 huFAP, HEK293 huCD26, HEK293 muFAP, or mock-transfected HEK293, blocked with 5% milk powder in PBS, incubated with phage-containing supernatants for 1 hr at room temperature and developed using an anti-M13-HRP conjugated antibody. […] Bound Fab antibody was detected with anti-myc tag antibody 9E10, followed by an anti-mouse immunoglobulin-PE conjugate. For competition assays, Fab antibodies were detected using biotinylated anti-myc tag 9E10, followed by strep-PE.
# [6] = target: T2, dipeptidylpeptidase activity of FAP; test: Fluorogenic dipeptidyl peptidase activity assay (Ala-Pro-AFC); format: biochemical; conditions: 30 μg/ml IgGs added to extracts of human AF; Ala-Pro-AFC substrate
# Protocol: Fluorogenic Dipeptidyl Peptidase Activity Assay.
# The diluted extracts were incubated with 0.5 mM Ala-Pro-AFC in 96-well plates at 37° C. and release of free AFC was monitored over time on a fluorescence reader (Victor Wallac, Perkin Elmer), using a 395 nm excitation/530 nm emission filter set. Dipeptidyl peptidase activity was determined from the slope of the fluorescence readings, after subtraction of background activity from a FAP negative sample.
# [7] = system: FAP-expressing cells; test: Attachment assay to ECM proteins; format: cell-based; conditions: antibodies 10 ug/ml, 30 min preincubation
# Protocol: Ninety-six-well microtiter plates (MAXISORP®, Nunc) were coated with indicated proteins at a concentration of 50 ug/ml and incubated over night at 4° C. Plates were washed three times with PBS and then blocked with 1% BSA for 60 min at 37° C. Cells were preincubated for 30 min with indicated antibodies at a final concentration of 10 ug/ml and then added to the coated plates. After 60 min, plates were washed with PBS to remove non adherent cells. Attached cells were stained using cristal violet and lysed by addition of Isopropanol with 0.4M HCl at a final volume of 75 ul/well. OD560 was measured on a ELISA reader.
# [8] = system: HEK293 cells stably transfected with mouse FAP; test: Detection of apoptotic cells by Annexin V staining, FAP-transfected cells; format: cell-based
# [9] = system: mock-transfected Hek293 cells; test: Detection of apoptotic cells by Annexin V staining, mock-transfected cells; format: cell-based
# Protocol: Detection of Apoptotic Cells by Annexin V Staining.
# FAP- and mock-transfected Hek293 cells were incubated in DMEM supplemented with 10% FBS in the presence of indicated amount of antibodies at RT. Control samples were either incubated in the absence of antibodies or at 4° C. in the presence of antibodies. After 60 min, cells were washed and stained with Propidium Iodide (Sigma) and Annexin V (Roche) following the manufacturer's instructions and the percentage of apoptosis was determined using flow cytometry.
# T3 sequence (P27487 whole entry): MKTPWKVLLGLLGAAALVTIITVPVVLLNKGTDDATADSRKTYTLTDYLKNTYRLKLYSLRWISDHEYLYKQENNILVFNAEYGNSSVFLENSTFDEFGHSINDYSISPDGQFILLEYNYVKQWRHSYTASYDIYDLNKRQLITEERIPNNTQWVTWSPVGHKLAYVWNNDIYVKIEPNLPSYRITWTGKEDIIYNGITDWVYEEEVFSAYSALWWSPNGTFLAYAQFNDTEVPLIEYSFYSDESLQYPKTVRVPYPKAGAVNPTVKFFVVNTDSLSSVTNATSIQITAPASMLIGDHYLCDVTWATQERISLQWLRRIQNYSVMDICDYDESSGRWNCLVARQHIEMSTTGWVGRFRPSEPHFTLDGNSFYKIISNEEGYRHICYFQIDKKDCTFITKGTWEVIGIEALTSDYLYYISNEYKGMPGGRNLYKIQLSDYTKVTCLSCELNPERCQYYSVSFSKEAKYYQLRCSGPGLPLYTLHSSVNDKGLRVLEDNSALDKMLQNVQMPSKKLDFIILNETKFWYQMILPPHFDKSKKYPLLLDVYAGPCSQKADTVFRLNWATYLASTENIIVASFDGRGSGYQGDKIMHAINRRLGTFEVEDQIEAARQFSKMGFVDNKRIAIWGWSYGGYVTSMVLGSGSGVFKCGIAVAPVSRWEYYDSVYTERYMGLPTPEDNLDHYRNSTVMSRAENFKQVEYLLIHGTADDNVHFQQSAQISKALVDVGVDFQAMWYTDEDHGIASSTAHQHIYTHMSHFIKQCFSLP
molecule,measurement,setting,value
Sibrotuzumab: humanized version of F19,Safety and tolerability,"[1]; patients, phase I and phase II trials",safe and well tolerated
same,Accumulation at the tumor area,"[1]; trace-labelling with ^131I, imaging analysis",specific accumulation
same,Anti-tumor or therapeutic activity,"[1]; unconjugated antibody, patients",no anti-tumor or any therapeutic activity
B1,Competition for FAP binding,[2],cross-inhibition
same,Down-regulation of FAP expression,[3],down-regulation of FAP expression; also recorded: dose-dependent reduction of FAP
same,Internalisation of FAP-antibody complexes,[4],most of the antibody had internalized
B2,Down-regulation of FAP expression,[3],could not been observed
B3,Cross-reaction with CD26,[5],no binding
same,Down-regulation of FAP expression,[3],rapid FAP down-regulation
same,Effect on DPP (protease) activity of FAP,[6],no direct influence
same,"Attachment of FAP-expressing cells to ECM proteins (matrigel, type I collagen)",[7],significant inhibition
same,Induction of apoptosis in the cold,[8]; 4° C.,could not be induced
same,Induction of apoptosis,"[8]; HEK293 stably transfected with mouse FAP, RT, 60 min, Annexin V",underwent apoptosis; also recorded: Induction of apoptosis
same,Induction of apoptosis in mock-transfected cells,[9],not altered at all
B4,Competition for FAP binding,[2],cross-inhibition
same,Down-regulation of FAP expression,[3],down-regulation of FAP expression; also recorded: dose-dependent reduction of FAP
B5,Down-regulation of FAP expression,[3],could not been observed
